{"source": "paper PMC6628393", "biological_target": "Kv2.1 potassium channel (UniProt Q14721)", "sequence (Q14721 whole entry)": "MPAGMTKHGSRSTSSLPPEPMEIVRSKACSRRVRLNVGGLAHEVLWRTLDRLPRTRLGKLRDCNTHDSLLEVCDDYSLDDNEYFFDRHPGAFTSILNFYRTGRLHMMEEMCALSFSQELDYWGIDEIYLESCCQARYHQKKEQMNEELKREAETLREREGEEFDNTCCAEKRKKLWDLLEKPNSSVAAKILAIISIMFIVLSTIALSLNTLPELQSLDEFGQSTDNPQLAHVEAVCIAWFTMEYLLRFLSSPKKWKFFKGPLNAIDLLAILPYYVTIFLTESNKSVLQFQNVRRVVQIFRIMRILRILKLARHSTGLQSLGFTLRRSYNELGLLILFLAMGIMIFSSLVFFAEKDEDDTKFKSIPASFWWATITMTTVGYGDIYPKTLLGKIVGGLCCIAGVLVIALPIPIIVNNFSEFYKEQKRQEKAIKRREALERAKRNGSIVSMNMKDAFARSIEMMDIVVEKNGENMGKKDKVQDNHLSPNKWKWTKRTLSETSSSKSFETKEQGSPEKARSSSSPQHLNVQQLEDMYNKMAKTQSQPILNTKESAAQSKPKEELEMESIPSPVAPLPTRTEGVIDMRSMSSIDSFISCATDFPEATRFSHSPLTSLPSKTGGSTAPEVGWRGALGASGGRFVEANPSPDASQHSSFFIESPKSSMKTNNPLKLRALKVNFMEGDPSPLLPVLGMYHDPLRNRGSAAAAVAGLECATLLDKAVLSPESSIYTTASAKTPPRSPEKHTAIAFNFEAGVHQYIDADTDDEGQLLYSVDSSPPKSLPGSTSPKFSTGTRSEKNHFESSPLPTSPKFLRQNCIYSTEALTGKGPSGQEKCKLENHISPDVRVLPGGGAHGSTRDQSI", "data": [{"substance": "MiDCA1, a phospholipase A2 (PLA2) neurotoxin from Micrurus dumerilii carinicauda coral snake venom (enzyme)", "values": [{"measurement": "inhibition of Kv2.1-mediated current in Xenopus oocytes by 1 μM MiDCA1 (reversible on washout)", "result": 55, "unit": "%"}]}]}
